The source of these data is patent publication US4579822A (priority 1983, dated 1986).

Holding throughout (conditions): other: pH 7.5, 25° C.
Substrate in data set [1]: O=CC(O)CO
Nature of the data set: Km values of DHAK (I) for substrates and coenzyme. It counts as biochemical, Schizosaccharomyces pombe IFO 0354.

Substrate in data set [2]: Nc1ncnc2c1ncn2[C@@H]1O[C@H](COP(=O)(O)OP(=O)(O)OP(=O)(O)O)[C@@H](O)[C@H]1O
Kind of data set: Km values of DHAK (I) for substrates and coenzyme. It is filed as biochemical, Schizosaccharomyces pombe IFO 0354.

Substrate in data set [3]: O=C(CO)CO
Kind of data set: purified protein, by the assay type.

Substrate in data set [4]: O=CC(O)CO
Nature of the data set: Km values of DHAK (II) for substrates and coenzyme. It counts as biochemical, Schizosaccharomyces pombe IFO 0354.

Substrate in data set [5]: O=C(CO)CO
Nature of the data set: Km values of DHAK (II) for substrates and coenzyme. It is filed as biochemical, Schizosaccharomyces pombe IFO 0354.

Substrate in data set [6]: Nc1ncnc2c1ncn2[C@@H]1O[C@H](COP(=O)(O)OP(=O)(O)OP(=O)(O)O)[C@@H](O)[C@H]1O
Nature of the data set: Km values of DHAK (II) for substrates and coenzyme. It is filed as biochemical, Schizosaccharomyces pombe IFO 0354.

B1: DHAK (I) (Schizosaccharomyces pombe 972h-) (protein)
chain: MDKHFINDPEVLVLDGLKSLADMNKTLTVHEEGKFIYFHDYNKKNVSVISGGGAGHEPTHSSFVGKGMLTAAVSGSIFASPSSKQIYTGIKQVESEAGTLVICKNYTGDILHFGMALEKQRTAGKKAELIAVADDVSVGRKKSGKVGRRGLSGTVLVHKIAGAAAARGLPLEAVTTIAKAAIDNLVSIGASLAHVHVPGHEPIAKEDEMKHDEMELGMGIHNEPGCKRISPIPSIDDLIAQMLKQMLDQSDKDRAYVKIEGDDEVVLLMNNLGGLSMLEFSAISHKVKEALAKEYKINPVRIFAGPFTTSLNGLGFGITLLRTTDRVKVEGEEYSLVDLIDQPVEAIGWPLCQPSDLKSKNKIGNVSIEEGQKDVKSPVTVDKEKVRQAIVNSMENLIKAEPKITKFDTMAGDGDCGTTLKRGAEGVLKFVKSDKFSDDPIRIVRDIADVIEDNMDGTSGALYAIFFHGFAKGMKDTLEKSKDISSKTWAAGLKVALDTLFKYTPARPGDSTMCDALVPFVETFVKTNDLNAAVEEARKGADATADMQAKLGRAVYVGDDVKVPDAGALGVVAIVEGFTK
notes: DHAK (I) and DHAK (II) obtained from Schizosaccharomyces pombe IFO 0354; made in house; host or cells: Schizosaccharomyces pombe IFO 0354 (natural producer, not recombinant); cell extract, DEAE-Sepharose fraction at 0.12 M KCl, then Blue-Sepharose
By Km is commonly meant the concentration of substrate that gives half-maximal velocity. With B1, the Km came out at 21 µM in data set [1], 220 µM in data set [2] and 8.4 µM in data set [3].

B2: DHAK (II) (Schizosaccharomyces pombe 972h-) (protein)
chain: MSVKQFVSDGHIVRPYLLGLARSNPGLTVIEHDRVIYRTASAPGSGDLPKVTLVSGGGSGHEPTHAGFVGDGALDAVACGDIFASPSTKQIYSALKAVASPKGTLIIVKNYTGDIIHFGLAAERAKAAGMNVELVAVGDDVSVGKKRGALVGRRGLGATVLVHKIAGSAAALGLDLHQVAQVAQSVIDNAATIAASLDHCAVPGRKFETNLGPDEYEIGMGIHNEPGTFKSSPLPSIPELVTEMLSILFGEKNPDNSFVEFSSKDDVILLVNNMGGMSNLELGYATEVVSEQLAKRGIIPKRTMSGTFVTALNGPGFGITLVNASKATPDIFKYFDLPTTASGWNVSYHNAKDWEVLADGKVPTAPALEHTRNEKHSGVKADPKMFTKILKAAVDAINEFEPKTTWYDTIAGDGDCGTTLVNGGEAITKAINDKSIRLDDGVNGIDDLAYIVEDSMGGTSGGLYSIYLSALAKGVHESGDSELSVHTFAFASKYALDALFKYTRARKGFRTLIDAIQPFVETLNEGKGLDAAAKAATEGSEQTRKMDAVVGRASYVAKEELHKLDSEGGLPDPGAFALAAILNAIVEASEH
notes: DHAK (I) and DHAK (II) obtained from Schizosaccharomyces pombe IFO 0354; made in house; host or cells: Schizosaccharomyces pombe IFO 0354 (natural producer, not recombinant); cell extract, DEAE-Sepharose fraction at 0.16 M KCl, then Blue-Sepharose
Take B2: the figures for the Km in data set [4], in data set [5] and in data set [6] were 32 µM, 20 µM and 910 µM, respectively.
